The results in this text go back to patent publication US10450355B2, “Lectins and uses thereof” (THE REGENTS OF THE UNIVERSITY OF MICHIGAN, priority 2014, dated 2019).

Data set [1] addresses T1, BanLec, recombinant wild type (rBanLec, codon-optimized cDNA from gi71042661, C-terminal 6×His tag) (Musa acuminata, UniProt O22321).
T1 sequence (O22321 1-141): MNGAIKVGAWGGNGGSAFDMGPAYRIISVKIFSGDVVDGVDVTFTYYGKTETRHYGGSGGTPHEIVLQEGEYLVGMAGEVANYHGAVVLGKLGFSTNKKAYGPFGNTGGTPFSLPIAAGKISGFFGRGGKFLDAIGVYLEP
In words: Isothermal titration calorimetry, binding constants of lectin for sugar. Conditions: WT BanLec, ITC, 25° C., PBS, stoichiometry fixed at 1. Also on record: species or system banana.

Data set [2] deals with BanLec variant H84T (recombinant, 6×His tag) (Musa acuminata, UniProt O22321, H84T). Put plainly: biochemical. It counts as binding, banana.
Data set [3] addresses BanLec variant H84T (recombinant, 6×His tag). Put plainly: biochemical. The data set is classed as binding, banana. The conditions noted are these: for Fold Change (Ka, WT vs H84T): WT compared with H84T.
In data set [4] the target is T2, BanLec, natural (banana-derived) (Musa acuminata, UniProt O22321).
T2 sequence (O22321 1-141): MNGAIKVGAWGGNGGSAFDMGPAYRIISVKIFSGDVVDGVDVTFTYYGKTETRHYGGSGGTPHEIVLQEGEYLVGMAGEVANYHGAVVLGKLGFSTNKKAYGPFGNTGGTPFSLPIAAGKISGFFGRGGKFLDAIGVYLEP
In words: Isothermal titration calorimetry, natural BanLec compared with rBanLec. The conditions noted are these: ITC. It counts as binding.

The test system of data set [5] is the lectins (BanLec WT and H84T mutant). Put plainly: Isothermal titration calorimetry, general statement for the lectins. Also on record: species or system banana. Conditions: ITC, 25° C., PBS; relatively low binding constants. On the procedure:
Isothermal Titration Calorimetry
Binding constants of the lectins for methyl-α-D-mannopyranoside were determined by isothermal titration calorimetry using a MicroCal VP-ITC calorimeter (Micro-Cal, Northampton, Mass., USA) at 25° C. Data were analyzed using Origins Ver. 7 software supplied with the instrument. The lectin in PBS, generally at approx. 0.2 mM, was titrated with the ligand at 20 mM in the same buffer. The titration volumes were adjusted so that the titration proceeded to at least a 10-fold molar excess of ligand over lectin monomers. The relatively low binding constants (Ka<1000 M^−1) precluded obtaining full saturation or a definite sigmoidal titration curve from which a definitive stoichiometry can be calculated; thus, the stoichiometry was fixed at 1 for curve-fitting to determine Ka; values between about 0.5 and 2-3 had little effect on the Ka-value obtained.

For data set [6], the system named is peripheral blood lymphocytes (PBL). Put plainly: Mitogenic activity by BrdU incorporation. The data set is classed as cell-based. The conditions noted are these: for stimulation index (mitogenic activity): PBL, three days with lectin, BrdU, less than ten considered non-mitogenic; for mitogenicity, in words: relative to WT BanLec.
The subject of the next data set is HIV-1 pseudo-typed virus. The data set is classed as cell-based. Conditions: for anti-HIV activity, in words: relative to WT BanLec.
Data set [7] deals with formaldehyde-treated rabbit erythrocytes. Put plainly: Haemagglutination assay. It counts as cell-based. Conditions: rabbit red blood cells.
Data set [8] has as its system H5N1 avian influenza strain. The data set is classed as cell-based, influenza A virus.
The test system of data set [9] is CD4+ peripheral blood mononuclear cells (PBMC). Put plainly: Flow cytometry of activation marker CD69. The data set is classed as cell-based.
Another data set deals with HIV-1 JR-CSF. The data set is classed as in vivo, BLT humanized mice. Conditions: 75 μg vaginally ten minutes before vaginal HIV-1 JR-CSF challenge; six weeks; p=0.0359 vs PBS.
Data set [10] relates to PBMCs from healthy donors. In words: Bio-Plex cytokine assay. It counts as cell-based, human. The conditions noted are these: PBMC from multiple donors, 72 h.
Data set [11] in a line: Aggregation in solution during NMR studies. It counts as physicochemical. Conditions: NMR samples.
The test system of data set [12] is 1918 H1N1 pandemic influenza strain. The data set is classed as cell-based, influenza A virus.

A value given as a limit tells only on which side of the number the result lay.

Take `OC[C@H]1O[C@@H](O[C@H]2[C@H](O)[C@H](O)C(O)O[C@@H]2CO)[C@@H](O)[C@@H](O)[C@@H]1O` (some centres unmarked) [mannobiose]: in data set [1], the Ka was determined as 300 mM⁻¹. Also, in data set [2] (H84T BanLec, ITC, 25° C., PBS, stoichiometry fixed at 1), the Ka was 227 mM⁻¹. Further, in data set [3], the “KD-values, rBanLec vs H84T” value is “similar” and the “Fold Change (Ka, WT vs H84T)” value amounted to 1.32.
Regarding `CO[C@H]1O[C@H](CO)[C@@H](O)[C@H](O)[C@@H]1O` [methyl-α-mannoside, Methyl α-d-mannopyranoside], the figures for the Kd in data set [1] (read-out: Ka (converted)) and in [2] were 2.61 µM and 2.83 µM, respectively. Further, the “affinity for the ligand, BanLec vs rBanLec” value in data set [4] is given as “no difference”. The same molecule had a Ka in [5] of less than 1000 M⁻¹. The “KD-values, rBanLec vs H84T” value in [3] is on record as “similar”. Besides, the “Fold Change (Ka, WT vs H84T)” value in data set [3] was 1.09.
Regarding “GNA: Galanthus nivalis agglutinin, non-mitogenic negative control [reference compound]”, in data set [6], the “stimulation index (mitogenic activity)” value is reported as “less than ten”.
In the case of Griffithsin [reference compound], the “stimulation index (mitogenic activity)” value in data set [6] was “less than ten”.

B1: D133G: BanLec mutant with a mutation in the first or second Greek Key sugar binding motif (protein)
chain: MNGAIKVGAWGGNGGSAFDMGPAYRIISVKIFSGDVVDGVDVTFTYYGKTETRHYGGSGGTPHEIVLQEGEYLVGMAGEVANYHGAVVLGKLGFSTNKKAYGPFGNTGGTPFSLPIAAGKISGFFGRGGKFLGAIGVYLEP
In the case of B1, the “mitogenicity, in words” value in [6] was “abolished the mitogenic activity”.

B2: H84W: BanLec mutant, H84 replaced by tryptophan (protein)
chain: MNGAIKVGAWGGNGGSAFDMGPAYRIISVKIFSGDVVDGVDVTFTYYGKTETRHYGGSGGTPHEIVLQEGEYLVGMAGEVANYWGAVVLGKLGFSTNKKAYGPFGNTGGTPFSLPIAAGKISGFFGRGGKFLDAIGVYLEP
As for B2, the “anti-HIV activity, in words” value with HIV-1 pseudo-typed virus is on record as “minimal effects”. In data set [6], the “mitogenicity, in words” value is on record as “minimal effects”.

B3: H84G: BanLec mutant, H84 replaced by glycine (protein)
chain: MNGAIKVGAWGGNGGSAFDMGPAYRIISVKIFSGDVVDGVDVTFTYYGKTETRHYGGSGGTPHEIVLQEGEYLVGMAGEVANYGGAVVLGKLGFSTNKKAYGPFGNTGGTPFSLPIAAGKISGFFGRGGKFLDAIGVYLEP
Regarding B3, in the data set on HIV-1 pseudo-typed virus, the “anti-HIV activity, in words” value is reported as “preserving some antiviral HIV activity”. The “mitogenicity, in words” value in [6] is “reasonably similar drop in mitogenicity as H84T”.

B4: H84Y: BanLec mutant, H84 replaced by tyrosine (protein)
chain: MNGAIKVGAWGGNGGSAFDMGPAYRIISVKIFSGDVVDGVDVTFTYYGKTETRHYGGSGGTPHEIVLQEGEYLVGMAGEVANYYGAVVLGKLGFSTNKKAYGPFGNTGGTPFSLPIAAGKISGFFGRGGKFLDAIGVYLEP
In the case of B4, the “anti-HIV activity, in words” value in the data set on HIV-1 pseudo-typed virus was “minimal effects”. Besides, the “mitogenicity, in words” value in [6] is given as “minimal effects”.

B5: H84Q: BanLec mutant, H84 replaced by glutamine (protein)
chain: MNGAIKVGAWGGNGGSAFDMGPAYRIISVKIFSGDVVDGVDVTFTYYGKTETRHYGGSGGTPHEIVLQEGEYLVGMAGEVANYQGAVVLGKLGFSTNKKAYGPFGNTGGTPFSLPIAAGKISGFFGRGGKFLDAIGVYLEP
Regarding B5, in the data set with HIV-1 pseudo-typed virus, the “anti-HIV activity, in words” value is recorded as “marked loss”. The “mitogenicity, in words” value in data set [6] was “marked loss”.

B6: H84K: BanLec mutant, H84 replaced by lysine (protein)
chain: MNGAIKVGAWGGNGGSAFDMGPAYRIISVKIFSGDVVDGVDVTFTYYGKTETRHYGGSGGTPHEIVLQEGEYLVGMAGEVANYKGAVVLGKLGFSTNKKAYGPFGNTGGTPFSLPIAAGKISGFFGRGGKFLDAIGVYLEP
Regarding B6, the “anti-HIV activity, in words” value with HIV-1 pseudo-typed virus is “marked loss”. Also, the “mitogenicity, in words” value in data set [6] was “marked loss”.

B7: H84T: BanLec variant in which the histidine at position 84 is replaced by a threonine (protein)
chain: MNGAIKVGAWGGNGGSAFDMGPAYRIISVKIFSGDVVDGVDVTFTYYGKTETRHYGGSGGTPHEIVLQEGEYLVGMAGEVANYTGAVVLGKLGFSTNKKAYGPFGNTGGTPFSLPIAAGKISGFFGRGGKFLDAIGVYLEP
On to B7, for which the “inhibition of HIV replication (IC50), in words” value in the data set on HIV-1 pseudo-typed virus was “low nanomolar range”. Further, the “anti-HIV inhibition relative to WT BanLec” value in the data set on HIV-1 pseudo-typed virus (multiple different isolates of HIV) is “equal to or within one log”. The same molecule yielded a minimal agglutination concentration in data set [7] of 487 µg/mL. Besides, the “inhibition of replication of H5N1 avian influenza virus” value in [8] was “very active and equally inhibited replication”. The “cell surface expression of activation marker CD69” value in [9] is “very little upregulation”. The “mice with detectable levels of viral RNA in the plasma” value with HIV-1 JR-CSF is listed as “none of the mice”. The cytokine/chemokine production result in data set [10] is recorded as “markedly reduced production of cytokines”. Also, the “stimulation of proliferation of lymphocytes” value in [6] (concentrations up to 1 μM) is “did not stimulate the proliferation of lymphocytes”. Further, the “aggregation over time in solution” value in [11] is “tendency to aggregate over time”. In data set [12], the “inhibition of replication of 1918 H1N1 virus” value is “very active and equally inhibited replication”.

B8: H84L: BanLec mutant, H84 replaced by leucine (protein)
chain: MNGAIKVGAWGGNGGSAFDMGPAYRIISVKIFSGDVVDGVDVTFTYYGKTETRHYGGSGGTPHEIVLQEGEYLVGMAGEVANYLGAVVLGKLGFSTNKKAYGPFGNTGGTPFSLPIAAGKISGFFGRGGKFLDAIGVYLEP
Consider B8, for which, in the data set on HIV-1 pseudo-typed virus, the “anti-HIV activity, in words” value was “marked loss”. For the same molecule, the “mitogenicity, in words” value in data set [6] was “marked loss”.

B9: H84D: BanLec mutant, H84 replaced by aspartic acid (protein)
chain: MNGAIKVGAWGGNGGSAFDMGPAYRIISVKIFSGDVVDGVDVTFTYYGKTETRHYGGSGGTPHEIVLQEGEYLVGMAGEVANYDGAVVLGKLGFSTNKKAYGPFGNTGGTPFSLPIAAGKISGFFGRGGKFLDAIGVYLEP
In the case of B9, the “anti-HIV activity, in words” value in the data set with HIV-1 pseudo-typed virus is “marked loss”. For the same molecule, the “mitogenicity, in words” value in data set [6] is “marked loss”.

B10: H84E: BanLec mutant, H84 replaced by glutamic acid (protein)
chain: MNGAIKVGAWGGNGGSAFDMGPAYRIISVKIFSGDVVDGVDVTFTYYGKTETRHYGGSGGTPHEIVLQEGEYLVGMAGEVANYEGAVVLGKLGFSTNKKAYGPFGNTGGTPFSLPIAAGKISGFFGRGGKFLDAIGVYLEP
On to B10, for which, in the data set on HIV-1 pseudo-typed virus, the “anti-HIV activity, in words” value is given as “marked loss”. Further, the “mitogenicity, in words” value in data set [6] was “marked loss”.

B11: H84F: BanLec mutant, H84 replaced by phenylalanine (protein)
chain: MNGAIKVGAWGGNGGSAFDMGPAYRIISVKIFSGDVVDGVDVTFTYYGKTETRHYGGSGGTPHEIVLQEGEYLVGMAGEVANYFGAVVLGKLGFSTNKKAYGPFGNTGGTPFSLPIAAGKISGFFGRGGKFLDAIGVYLEP
With B11, in the data set with HIV-1 pseudo-typed virus, the “anti-HIV activity, in words” value was “minimal effects”. For the same molecule, in data set [6], the “mitogenicity, in words” value is “minimal effects”.
